This passage reports Km results from paper PMC6894463, “Improved spectrophotometric assay for lytic polysaccharide monooxygenase” (Biotechnology for Biofuels, 2019).

Substrate in this data set: COc1cc(-c2cc(OC)c(O)c(OC)c2)cc(OC)c1O
Nature of the data set: purified protein. Format: biochemical, Neurospora crassa. The following applies: 100 µM H2O2 co-substrate, 50 mM sodium phosphate pH 6.0, apparent, no saturation reached.

B1: NcLPMO9C (Neurospora crassa OR74A) (protein)
chain: HTIFQKVSVNGADQGQLKGIRAPANNNPVTDVMSSDIICNAVTMKDSNVLTVPAGAKVGHFWGHEIGGAAGPNDADNPIAASHKGPIMVYLAKVDNAATTGTSGLKWFKVAEAGLSNGKWAVDDLIANNGWSYFDMPTCIAPGQYLMRAELIALHNAGSQAGAQFYIGCAQINVTGGGSASPSNTVSFPGAYSASDPGILINIYGGSGKTDNGGKPYQIPGPALFTCPAGGSGGSSPAPATTASTPKPTSASAPKPVSTTASTPKPTNGSGSGTGAAHSTKCGGSKPAATTKASNPQPTNGGNSAVRAAALYGQCGGKGWTGPTSCASGTCKFSNDWYSQCLP
notes: full-length secreted enzyme, recombinant in Pichia pastoris X-33, purified
Turning to B1, the Km turned out to be 3.6 ± 0.5 mM.
